Assay results: article PMC5600724

Target: recombinant Plasmodium vivax apical membrane antigen 1 ectodomain (rPvAMA1) (Plasmodium vivax)
Test: ELISA; phage ELISA: wells coated with rPvAMA1 (100 ug/ml in 0.1 M NaHCO3, pH 8.6), blocked with BSA; ~10^9 phage in TBST, 2 h at room temperature; HRP anti-M13 antibody, ABTS, A405; fold = absorbance on target / absorbance on BSA-blocked well

Row | Binder | fold of binding signal (A405 on rPvAMA1 over A405 on BSA)
1 | TSVSYINNRHNL [PdV3 phage-displayed dodecapeptide] | 3.1 fold
2 | WHWSWWNPNQLT [PdV2 phage-displayed dodecapeptide] | 3.5 fold
